The text below walks through data of patent US20240093191A1, “COMPOSITIONS AND METHODS FOR TREATING DISEASE ASSOCIATED WITH DUX4 OVEREXPRESSION” (RESEARCH INSTITUTE AT NATIONWIDE CHILDREN'S HOSPITAL, priority 2021, published 2024).

What all share (type): cell-based, human
The test system of data set [1] is DUX4 ORF (RenLuc-DUX4 ORF). The data set is described as follows: Dual-luciferase assay, RenLuc-DUX4 ORF reporter co-transfected with miDUX4 plasmids in HEK293 cells. Particulars: HEK293, 24 h. The method, then: Dual Luciferase Assay. (See also FIGS. 1A, 3A-B, 4A-B, 5B, and 16B-C.) This assay was performed as previously described by Wallace et al. (Mol. Ther. Methods Clin. Dev. 8: 121-30 (2018)) and following the dual-luciferase reporter assay system (Promega) protocol with some modifications. All plasmid constructs had the psiCheck2 dual luciferase reporter plasmid (Promega) as backbone that contains separate Renilla and Firefly luciferase genes, where the former contains the various target sequences used in the experiments of the disclosure, and the latter serves as a transfection normalizer (control). All DUX4 and control sequences were cloned downstream of the Renilla luciferase stop codon, serving as a 3′UTR. HEK293 cells were pre-plated 24h before transfection. Cells were then co-transfected with the luciferase DUX4 reporter and individual microRNA expression plasmids in an increasing luciferase DUX4 reporter:miRNA molar ratio using Lipofectamine 2000 (Invitrogen). Luciferase activity was measured 24h or 48h after transfection. DUX4 gene silencing was determined as previously described [Wallace et al., Mol. Ther. Methods Clin. Dev. 8: 121-30 (2018)]. Triplicate data were averaged per experiment, and individual experiments were performed 3 times. Results were reported as the average ratio of Renilla to Firefly luciferase activity±SEM for all combined experiments.
Accordingly, two new mi405 constructs, i.e., mi405F and mi405NF, were designed. […] To assess the inhibition efficiency of the three mi405 constructs, a dual-luciferase assay and western blot analysis, similar to what was described for mir-675, were carried out. In the dual-luciferase assay, U6.mi405, U6.mi405F, or U6.mi405NF was co-transfected into HEK293 cells along with the RenLuc-DUX4 ORF (a construct expressing the open reading frame of DUX4 as a 3′UTR sequence of Renilla Luciferase). 24 h after transfection, U6.mi405, U6.mi405F, and U6.mi405NF reduced the relative Renilla luciferase activity by 85±1%, 89±1%, and 66±1% (P<0.0001, ANOVA, N=3), respectively, when tested against the RenLuc-DUX4 ORF construct.

A further data set has as its system DUX4 protein. The data set can be described thus: Western blot of V5-tagged DUX4 protein in co-transfected HEK293 cells. Particulars: 1:4 DUX4:mi405 molar ratio; HEK293; 24 h; normalized to miGFP; N=2. In general terms: In western blotting, separated proteins are transferred to a membrane and probed.
Data set [2] deals with DUX4-FL (DUX4 ORF + 3'UTR, RenLuc-DUX4-FL). The data set is described as follows: Dual-luciferase assay, RenLuc-DUX4-FL reporter co-transfected with miRNA plasmids in HEK293 cells. As to conditions: positive control, molar ratio not stated, 48 h. An excerpt: FIG. 1A. Dual-luciferase assay to test the ability of U6.mir-675 to target DUX4. Shown here is the mir-675 expression plasmid used in this study. In this construct, the RNA polymerase III U6 promoter (U6p) controls the expression of mir-675. A terminal signal formed of a stretch of six T nucleotides allows the termination of transcription. On the right, the secondary structure of the mir-675 along with its 5′ and 3′ end flanking sequences (Boxed) is shown. At the 5′ end, the flanking sequence is of 40 nucleotides long and at the 3′ end, the flanking sequence is of 47 nucleotides long starting from the nucleotide at position 114. U6.mir-675 was tested to target DUX4 using the dual-luciferase assay. To do this, DUX4 was cloned in the RenLuc-DUX4-FL expression plasmid (FIG. 1A), i.e., DUX4-FL (DUX4 ORF without V5 tag+3′UTR) was PCR amplified using CMV.DUX4-FLΔV5 as template with the following primers: forward: 5′ […] 3′ (SEQ ID NO: 125), reverse: 5′ […] 3′ (SEQ ID NO: 126). The PCR product was then cloned into a previously designed RenLuc SD5 mutant plasmid using XhoI/SpeI restriction sites and the RenLuc.SD5 mutant-DUX4 3′UTR plasmid backbone. The Renilla luciferase gene has a splicing donor mutation (*SID5) that prevents the alternative splicing of the DUX4-FL mRNA (Ansseau et al. (2015) PLoS One, 10, e0118813). The dual-luciferase assay was performed by co-transfecting the RenLuc-DUX4-FL and U6.mir-675 expression plasmids into the human embryonic kidney HEK293 cells. 48 hours after transfection, both the Renilla and Firefly luciferase activities were measured. The latter was used to normalize for Renilla luciferase activity. The non-targeting RenLuc control backbone plasmid (RenLuc) was co-transfected with U6.mir-675 and the RenLuc-DUX4-FL co-transfected with U6.milacZ as negative control reactions. In the other reactions, mir-675 reduced the relative Renilla luciferase activity by 24±3% (P<0.0001, ANOVA, N=3), 28±2% (P<0.0001, ANOVA, N=3) and 33±3% (P<0.0001, ANOVA, N=3) at a molarity ratio U6.mir-675: RenLuc-DUX4-FL (n:n) of 10 to 1, 20 to 1 and 40 to 1, respectively. All readings were normalized to the U6.milacZ (negative control). Six replicate data were averaged per experiment and individual experiments were performed in triplicate (N=3). Results were reported as the average relative Renilla luciferase activity±SEM for all combined experiments. […] A representative western blot gel and the quantification results of three independent western blot replicates (N=3) performed on 15 μg of total protein extracts collected from HEK293 cells 24 hours after co-transfection with the AAV.CMV.DUX4-FL and the U6.mir-675 or the human long non-coding H19 expression plasmid (CMV.H19) is shown here. […]

B1: U6.mi405: original artificially designed miDUX4 (mi405) U6 expression plasmid, Wallace et al. (nucleic acid)
DNA: ACGCCGCCATCTCTAGGCCCGCGCCGGCCCCCTCGCACAGACTTGTGGGAGAAGCTCGGCTACTCCCCTGCCCCGGTTAATTTGCATATAATATTTCCTAGTAACTATAGAGGCTTAATGTGCGATAAAAGACAGATAATCTGTTCTTTTTAATACTAGCTACATTTTACATGATAGGCTTGGATTTCTATAAGAGATACAAATACTAAATTATTATTTTAAAAAACAGCACAAAAGGAAACTCACCCTAACTGTAAAGTAATTGTGTGTTTTGAGACTATAAATATCCCTTGGAGAAAAGCCTTGTTTGCGTTTAGTGAACCGTCAGATGGTACCGTTTAAACTCGAGTGAGCGATCCAGGATTCAGATCTGGTTTCTGTAAAGCCACAGATGGGAAACCAGATCTGAATCCTGGACTGCCTACTAGAGCGGCCGCCACAGCGGGGAGATCCAGACATGATAAGATACATTTTTT
For the molecule B1, the “reduction of relative Renilla luciferase activity” value in data set [1] (1:4 DUX4:mi405 molar ratio, normalized to miGFP) amounted to 85±1%; in data set [2] it was 80±2%. Also, the “reduction of Renilla luciferase activity” value in data set [1] (DUX4:mi405 molar ratio 2 to 1, normalized to U6.miGFP) was 62±2%. Besides, the “reduction of DUX4 protein levels” value with DUX4 protein came to 79±1%.
